From article PMC4832192, “Structural basis of DNA sequence recognition by the response regulator PhoP in Mycobacterium tuberculosis”

B1: crystal direct-repeat DNA (dsDNA)
DNA 1: GATTCACAGCTGATTCACAGCATCTA
DNA 2: CTAGATGCTGTGAATCAGCTGTGAAT
B2: tri (three motifs) (dsDNA)
DNA 1: GTACCTCACAGCACTTTCACAGCTTTCTCACAGCATCTATG
DNA 2: CATAGATGCTGTGAGAAAGCTGTGAAAGTGCTGTGAGGTAC
B3: DRs3 (3-bp spacer) (dsDNA)
DNA 1: AAGTACCTCACAGCACTTCACAGCTTTCAT
DNA 2: ATGAAAGCTGTGAAGTGCTGTGAGGTACTT
B4: ahpC (dsDNA)
DNA 1: TTTGCCTGACAGCGACTTCACGGCACGATG
DNA 2: CATCGTGCCGTGAAGTCGCTGTCAGGCAAA
B5: hisG (dsDNA)
DNA 1: CGCGACCCGCAGCATGCTCACAGCTTTCGA
DNA 2: TCGAAAGCTGTGAGCATGCTGCGGGTCGCG
B6: tetra (four motifs) (dsDNA)
DNA 1: GTACCTCACAGCACTTTCACAGCTTTCTCACAGCTGATTCACAGCATCTATG
DNA 2: CATAGATGCTGTGAATCAGCTGTGAGAAAGCTGTGAAAGTGCTGTGAGGTAC
B7: DR (dsDNA)
DNA 1: ACGATTCACAGCTGATTCACAGCATCTACG
DNA 2: CGTAGATGCTGTGAATCAGCTGTGAATCGT
B8: lpqA (dsDNA)
DNA 1: GCACCTTCACCGCCCGCCCACAGCCACGCA
DNA 2: TGCGTGGCTGTGGGCGGGCGGTGAAGGTGC
B9: RD6 (dsDNA)
DNA 1: AAGTACCTCACAGCACTTTCACAGCTTTCAT
DNA 2: ATGAAAGCTGTGAAAGTGCTGTGAGGTACTT
B10: RD6-half (dsDNA)
DNA 1: CAGAAGTCACAGCACTTGGG
DNA 2: CCCAAGTGCTGTGACTTCTG

The binders below were run against T1, PhoP wild type (Mycobacterium tuberculosis, UniProt P71814 1-247) (assay: X-ray crystal structure (2.4 A); Ca2+ at Asp71; 2:1 PhoP:DNA; ITC: 20 mM HEPES pH 7.5, 100 mM NaCl, 5 mM MgCl2, 25 C, […]). Conditions: protein: recombinant; tags: N-terminal His-tag removed with TEV; chain copies: 2; G/C overhangs.
B1: binds.

These binders were tested against T1, PhoP wild type (assay: ITC; 5 mM MgCl2; ITC: 20 mM HEPES pH 7.5, 100 mM NaCl, 5 mM MgCl2, 25 C, […]). Conditions: protein: recombinant; tags: N-terminal His-tag removed with TEV; chain copies: 2.
Work on B2 yielded a Kd of 4.6 ± 2.7 nM. B3 showed a Kd of 433 ± 17.5 nM. B4 showed a Kd of 104 ± 7.2 nM. B5 showed a Kd of 35.6 ± 4.3 nM. B6 was tested, and the Kd was 2.2 ± 0.7 nM. B7 showed a Kd of 19.2 ± 2.8 nM. B8 showed a Kd of 347 ± 35.1 nM.

These binders were tested against PhoPC (isolated effector/DNA-binding domain) (Mycobacterium tuberculosis, UniProt P71814 148-247) (assay: ITC; 5 mM MgCl2; ITC: 20 mM HEPES pH 7.5, 100 mM NaCl, 5 mM MgCl2, 25 C, DNA titrated into protein). Conditions: protein: recombinant; tags: His-tag removed (similar procedure); chain copies: 2.
For B9, the Kd was 188 ± 9 nM. In the case of B10, the Kd is reported as 12200 ± 1600 nM.
